In the data set the target is T1, 65K C-RRM WT untagged (UniProt Q96LT9 381-516).
T1 sequence: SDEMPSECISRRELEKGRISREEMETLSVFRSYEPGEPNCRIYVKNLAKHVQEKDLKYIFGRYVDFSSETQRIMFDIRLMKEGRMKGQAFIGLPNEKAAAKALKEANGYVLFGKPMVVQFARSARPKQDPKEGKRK
Briefly: NMR chemical shift perturbation.

B1: U12 oligo (structured_RNA)
RNA: CCCGCCUACUUUGCGGG
Take B1: the binding result is given as “binds”.
